# Laboratory results as given in patent US12458692B2, “Self-assembling peptide scaffold” (Hexamer Therapeutics, Inc., priority 2018, dated 2025).
# Where no end group is shown, it is not given here.
# Experiment: Blue native PAGE of the peptide hydrated in 1×PBS (self-assembly)
# Assay type: physicochemical
# Conditions: dissolved in 1×PBS, 5 min at room temperature, Blue NativePAGE Bis-Tris gel
# Experimental: The peptide (SEQ ID NO: 15) was synthesized by SPPS and lyophilized for storage. The peptide was dissolved in 1×PBS and then loaded onto a blue native PAGE gel and size fractionated by electrophoresis through a 4-16% acrylamide gradient gel for 90 min at 150 V (constant). The gel was fixed in methanol:acetic acid:water and then rinsed in the same solution to destain. Lane 1 is BSA as a reference protein, and Lane 2 is the self-assembled hexamer. MW standards (which are not shown) are on the right. BSA is 66 kDa and the hexamer has an expected size of 20.7 kDa.
# Experiments were performed to confirm that a hexamer forms following hydration of the monomer, elucidate the solubility of epitope coupled hexamers, determine the maximum density of epitope coupling, and confirm that a hexameric structure is maintained following coupling of the epitope. A representative peptide, SEQ ID NO: 15, was synthesized using the protocols previously described. A methionine and aspartic acid residue were placed on the N-terminus, and the methionine residue was protected by acetylation to form Acetyl-MD-(SEQ ID NO: 15). Following SPPS, the peptide was lyophilized for storage. To show self-assembly, the peptide was dissolved in 1×PBS buffer, incubated at room temperature for 5 min, and loaded onto a Blue NativePAGE Novex Bis-Tris Gel using the system purchased from Life Technologies. […]
sequence,measurement,setting,value
"LRSIGKDLRSIGRDLRSIGKDLRSIGRD (Ac-MDLRSIGKDLRSIGRDLRSIGKDLRSIGRD; also: hexamer) [Acetyl-MD-(SEQ ID NO: 15), Representative self-assembling peptide made by SPPS; forms the hexamer on hydration]",higher order structures or aggregates,,no detectable higher order structures or aggregates
same,oligomeric state after hydration (self-assembly),expected hexamer size 20.7 kDa,self-assembly of the hexamer
